Assay results from patent publication US20150353950A1, “TRANSGENIC PLANTS” (Durham University, priority 2012, published 2015).

T1: SUMOylated GFP:RGA (plant-derived)
T1 chain 1: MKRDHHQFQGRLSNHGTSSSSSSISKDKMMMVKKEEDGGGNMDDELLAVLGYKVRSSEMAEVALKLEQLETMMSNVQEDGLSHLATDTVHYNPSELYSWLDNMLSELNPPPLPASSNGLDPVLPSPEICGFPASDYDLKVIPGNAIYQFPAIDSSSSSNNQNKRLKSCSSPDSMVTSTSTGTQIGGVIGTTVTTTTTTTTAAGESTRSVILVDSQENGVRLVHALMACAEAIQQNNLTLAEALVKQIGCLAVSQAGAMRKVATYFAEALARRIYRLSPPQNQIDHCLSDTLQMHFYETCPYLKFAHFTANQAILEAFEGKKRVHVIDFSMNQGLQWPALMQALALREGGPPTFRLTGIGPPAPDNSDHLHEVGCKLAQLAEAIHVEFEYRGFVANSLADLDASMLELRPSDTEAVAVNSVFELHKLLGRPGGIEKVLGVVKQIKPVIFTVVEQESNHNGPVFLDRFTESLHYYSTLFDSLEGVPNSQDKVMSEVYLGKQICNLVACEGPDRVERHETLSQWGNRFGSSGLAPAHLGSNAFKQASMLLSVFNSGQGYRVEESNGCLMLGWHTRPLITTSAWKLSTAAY
T1 chain 2: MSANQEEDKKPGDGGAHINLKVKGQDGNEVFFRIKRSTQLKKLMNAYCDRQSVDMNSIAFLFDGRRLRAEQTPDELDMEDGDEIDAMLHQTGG

T2: GID1a (Arabidopsis thaliana, UniProt Q9MAA7)
T2 construct: The GID1a ORF was amplified by PCR from whole cDNAs from seedlings with oligos LC73 and LC74; made in house; host or cells: E. coli
T2 sequence (Q9MAA7 1-345): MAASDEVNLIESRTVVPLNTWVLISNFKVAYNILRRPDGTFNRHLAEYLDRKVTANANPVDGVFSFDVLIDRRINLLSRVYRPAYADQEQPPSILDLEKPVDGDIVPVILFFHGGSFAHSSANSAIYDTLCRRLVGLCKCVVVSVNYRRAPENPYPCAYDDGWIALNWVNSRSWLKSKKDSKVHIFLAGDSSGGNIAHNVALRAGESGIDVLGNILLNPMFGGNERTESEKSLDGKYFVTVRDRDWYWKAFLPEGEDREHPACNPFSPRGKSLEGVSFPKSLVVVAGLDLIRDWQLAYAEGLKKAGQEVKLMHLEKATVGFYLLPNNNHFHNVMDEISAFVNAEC


Experiments:
SUMO1 = target: T3, SUMO1 (Arabidopsis thaliana, UniProt P55852); experiment: Far-western / peptide array of GID1 SIM peptides probed with SUMO1; format: binding; settings: for SIM-SUMO1 interaction (far-western): 1 μg peptide spotted on PVDF, probed with His:proAtSUMO1 (10 μg/ml); for interaction with SUMO1 (peptide array): peptide arrays of GID1 SIMs
T3 construct: His (N); made in house; host or cells: E. coli
T3 sequence (P55852 whole entry): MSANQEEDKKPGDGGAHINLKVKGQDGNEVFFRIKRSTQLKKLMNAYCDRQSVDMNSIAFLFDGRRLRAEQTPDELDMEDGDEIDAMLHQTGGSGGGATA
Protocol: FIGS. 9A-C. GID1a contains a functional SIM motif in the N-terminal region. a, amino acid positions of two putative SIMs (SUMO interacting motifs) in the GID1a N-terminal domain (SEQ ID NO: 59). Lower panel, far-western assays of two peptides corresponding to SIM A (SEQ ID NO: 60) and SIM B (SEQ ID NO: 58). […] Number indicates molecular mass (kDa). Non-transgenic, wild-type extracts (wt) were used as a negative control. c, mean root growth of 10 days old seedlings in the presence of 100 mM NaCl expressed as a inhibition (%) relatively to the untreated controls. Error bar=s.e.m. n=16.
Peptides corresponding to the putative SIMs in GID1 were purchased from Cambridge Research Biochemicals. 1 μg of each peptide was spotted on a PVDF membrane. Membranes were washed in 100% Ethanol, equilibrated in TBST (25 mM Tris HCl, pH 8.0, 150 mM NaCl, 0.05% Tween 20) and blocked in TBST-Milk 5%. Peptides were probed overnight at 4° C. with recombinant His:proAtSUMO1 (10 μg/ml), washed and subsequently probed with SUMO1 antibodies for standard chemoluminescence-based detection.

[1] = target: T1, SUMOylated GFP:RGA (plant-derived)
GID1a [2] = target: T2, GID1a; experiment: GST pull down assay with GST:GID1a; format: binding; settings: presence or absence of GA3 (10 μM)
Protocol: FIGS. 4A-F. SUMOylated DELLA binds GID1 independently from GA. a, crossspecies alignment of SIM B in the GID1 protein amino terminal extension (grey). Alignment discloses SEQ ID NOS 50-55, respectively, in order of appearance. b, GST pull down assay between His:AtSUMO1 and GST:GID1a or GST in the presence (+) or absence (−) of GA3 (10 μM). Asterisk indicates a cross-reacting band. c, GST pull down assay between plant-derived GFP:RGA proteins with recombinant GST:GID1a or GST. d, mean germination rates (percentage of visible green cotyledons) of wild type (wt), ots1 ots2 double mutants and transgenic lines (T4). n=40-80 for each treatment/genotype combination. Error bar=s.d. of three biological replicates. e, images of NaCl-grown seedlings. Bar=1 cm f, model for the SUMOylation-dependent DELLA accumulation. For recombinant proteins, affinity purified GST:GID1a (0.1 μg) or GST were mixed with His:AtSUMO1 (0.1 μg) and incubated in 1× reaction buffer (Gamborg's B5—minimal organics, 50 mM NaCl, 0.05% Igepal CA-630, 1 mM DTT, 50 mM Tris HCl, pH 7.5). GA3 was added at a final concentration of 10 μM. Proteins were pulled-down using the μMACS GST Isolation Kit, according to the manufacturers' instruction (Miltenyi biotech). […]

GID1a [3] = target: T2, GID1a; experiment: SPR (Biacore 2000) on immobilised GID1a; format: binding
Protocol: FIG. 17. SUMO inhibits GID1a binding to RGA-DELLA protein Interaction between RGA alone with GID1a (red) and, RGA and SUMO1 (AtS1, blue) with GID1a both in the presence of GA3. […] Method: SPR was carried out on a Biacore 2000 instrument at 25° C. Purified GID1a was amine-coupled to a CM5 sensor chip (GE Healthcare). Flow cell 1 was blocked using ethanolamine and used as reference. Approx 500 RU of GID1a was bound to flow cells 2 and 3. All binding assays were carried out in HBS-EP buffer (10 mM HEPES pH 7.5, 150 mM NaCl, 1 mM EDTA, 1 mM DTT, 0.005% P20) at a flow rate of 20 μl/min using 180 second injections followed by 180 s of dissociation in HBS-EP. Each condition was run in duplicate using proteins at 100 μg/ml in HBS-EP (containing 100 μM GA3 as appropriate). Regeneration used 10 mM glycine pH 1.5 at 30 μl/min for 30 s.
FIGS. 18A and B. GID1a—SUMO Interaction Data Sensorgram of interaction between SUMO1 (AtS1) with GID1a.

Molecule | SIM-SUMO1 interaction (far-western) (SUMO1) | interaction with SUMO1 (peptide array) (SUMO1) | binding to GST:GID1a (GST pull down) (GID1a [2]) | other results
SIM B V22A: SIM B peptide with substitution of a hydrophobic amino acid for an alanine residue (VVPLNTWALISN) | strongly reduced SIM-SUMO1 interaction | reduction in interaction |  | 
SIM B: peptide corresponding to putative SUMO interacting motif B in the GID1a N-terminal domain (SEQ ID NO: 58) (VVPLNTWVLISN; listed as Arabidopsis thaliana) | Binding between the SIM and SUMO1 occurs | shown to be a genuine SIM |  | 
His:OTS1 (protein) MTKRKKEVIDVDCSEKKDFVIDWSSAMDKEDEVPELEIVNTTKPTPPPPPTFFSDDQTDSPKLLTDRDLDEQLERKKAILTLGPGLPDKGEKIRLKIADLEEEKQRRVLEGSKMEVDRSSKVVSSTSSGSDVLPQGNAVSKDTSRGNADSKDTSRQGNADSKEVSRSTFSAVFSKPKTDSQSKKAFGKELEDLGCERRKHKAGRKPVTRLSNGWRLLPDVGKAEHSAKQFDSGLKESKGNKKSKEPYGKKRPMESSTYSLIDDDDDDDDDDDNDTSGHETPREWSWEKSPSQSSRRRKKSEDTVINVDEEEAQPSTVAEQAAELPEGLQEDICYPTRDDPHFVQVCLKDLECLAPREYLTSPVMNFYMRFLQQQISSSNQISADCHFFNTYFYKKLSDAVTYKGNDKDAFFVRFRRWWKGIDLFRKAYIFIPIHEDLHWSLVIVCIPDKKDESGLTILHLDSLGLHSRKSIVENVKRFLKDEWNYLNQDDYSLDLPISEKVWKNLPRRISEAVVQVPQQKNDFDCGPFVLFFIKRFIEEAPQRLKRKDLGMFDKKWFRPDEASALRIKIRNTLIELFRVSDQTE |  |  |  | in vitro deSUMOylation of immunoprecipitated GFP:RGA (anti-SUMO1 immunoblot) [1]: dramatic reduction of the higher molecular weight, anti-SUMO1 cross-reacting bands only in the tubes containing wild-type OTS1
AtS1: Arabidopsis small ubiquitin-like modifier SUMO1, recombinant (protein) MSANQEEDKKPGDGGAHINLKVKGQDGNEVFFRIKRSTQLKKLMNAYCDRQSVDMNSIAFLFDGRRLRAEQTPDELDMEDGDEIDAMLHQTGG |  |  | can bind to SUMO1 from Arabidopsis in a GA-independent manner | binding of AtS1 to GID1a (SPR sensorgram) (GID1a [3]; 25° C., HBS-EP buffer, proteins at 100 μg/ml): binding and saturation of AtS1 to GID1a followed by disassociation; effect on RGA binding to GID1a (SPR combined response) (GID1a [3]; RGA and AtS1 together, in the presence of GA3 (100 μM)): combined response (blue) is reduced in the presence of AtS1
SUMOylated RGA: plant-derived SUMOylated form of GFP:RGA DELLA protein (protein, left off: large carriers, plant-derived SUMOylated form of GFP:RGA DELLA protein) chain 1: MKRDHHQFQGRLSNHGTSSSSSSISKDKMMMVKKEEDGGGNMDDELLAVLGYKVRSSEMAEVALKLEQLETMMSNVQEDGLSHLATDTVHYNPSELYSWLDNMLSELNPPPLPASSNGLDPVLPSPEICGFPASDYDLKVIPGNAIYQFPAIDSSSSSNNQNKRLKSCSSPDSMVTSTSTGTQIGGVIGTTVTTTTTTTTAAGESTRSVILVDSQENGVRLVHALMACAEAIQQNNLTLAEALVKQIGCLAVSQAGAMRKVATYFAEALARRIYRLSPPQNQIDHCLSDTLQMHFYETCPYLKFAHFTANQAILEAFEGKKRVHVIDFSMNQGLQWPALMQALALREGGPPTFRLTGIGPPAPDNSDHLHEVGCKLAQLAEAIHVEFEYRGFVANSLADLDASMLELRPSDTEAVAVNSVFELHKLLGRPGGIEKVLGVVKQIKPVIFTVVEQESNHNGPVFLDRFTESLHYYSTLFDSLEGVPNSQDKVMSEVYLGKQICNLVACEGPDRVERHETLSQWGNRFGSSGLAPAHLGSNAFKQASMLLSVFNSGQGYRVEESNGCLMLGWHTRPLITTSAWKLSTAAY chain 2: MSANQEEDKKPGDGGAHINLKVKGQDGNEVFFRIKRSTQLKKLMNAYCDRQSVDMNSIAFLFDGRRLRAEQTPDELDMEDGDEIDAMLHQTGG |  |  | could bind to GST:GID1a even in the absence of GA | 
